{"source": "patent US20240116985A1", "about": "(published 2024)", "binders": {"B1": {"name": "I-1904 (peptide)", "peptide": "Ac-[αAllylPro]D[tBuAla][B5(12)]D[Phe(3-COOH)]AAFL[PyrS2(4)][Phe(2-Cl)][Bta]N-NH2", "modifications": "staple 1-4, 4-11; not fully specified; printed as Ac-PL3-Asp-Npg-B5-Asp-3COOHF-Ala-Ala-Phe-Leu-PyrS2-2C1F-BztA-Asn-NH2; reading uncertain"}, "B2": {"name": "I-1905 (peptide)", "peptide": "Ac-[αAllylPro]D[tBuAla][B5(12)]D[Phe(3-COOH)]AAFL[PyrS2(4)][Phe(2-Cl)][Bta]S[Thr(ol)]", "modifications": "staple 1-4, 4-11; not fully specified; printed as Ac-PL3-Asp-Npg-B5-Asp-3COOHF-Ala-Ala-Phe-Leu-PyrS2-2C1F-BztA-Ser-Thro1; reading uncertain"}, "B3": {"name": "I-1906 (peptide)", "peptide": "Ac-[αAllylPro]D[tBuAla][B5(12)]D[Phe(3-COOH)]AAFL[PyrS2(4)][Phe(2-Cl)][Bta]S-Prolinol", "modifications": "staple 1-4, 4-11; not fully specified; printed as Ac-PL3-Asp-Npg-B5-Asp-3COOHF-Ala-Ala-Phe-Leu-PyrS2-2C1F-BztA-Ser-Prool; reading uncertain"}, "B4": {"name": "I-1909 (peptide)", "peptide": "Ac-[αAllylPro]D[tBuAla][B5(12)]D[Phe(3-COOH)][Lys(iPr)]AFL[PyrS2(4)][3Thi][Bta]F-NH2", "modifications": "staple 1-4, 4-11; not fully specified; printed as Ac-PL3-Asp-Npg-B5-Asp-3COOHF-iPrLys-Ala-Phe-Leu-PyrS2-3Thi-BztA-Phe-NH2; reading uncertain"}, "B5": {"name": "I-1910 (peptide)", "peptide": "Ac-[αAllylPro]D[tBuAla][B5(12)]D[Phe(3-COOH)]HAFL[PyrS2(4)][3Thi][Bta]F-NH2", "modifications": "staple 1-4, 4-11; not fully specified; printed as Ac-PL3-Asp-Npg-B5-Asp-3COOHF-His-Ala-Phe-Leu-PyrS2-3Thi-BztA-Phe-NH2; reading uncertain"}, "B6": {"name": "I-1911 (peptide)", "peptide": "Ac-[αAllylPro]D[tBuAla][B5(12)]D[Phe(3-COOH)]KAFL[PyrS2(4)][3Thi][Bta]F-NH2", "modifications": "staple 1-4, 4-11; not fully specified; printed as Ac-PL3-Asp-Npg-B5-Asp-3COOHF-Lys-Ala-Phe-Leu-PyrS2-3Thi-BztA-Phe-NH2; reading uncertain"}, "B7": {"name": "I-1912 (peptide)", "peptide": "Ac-[αAllylPro]D[tBuAla][B5(5)]D[Phe(3-COOH)]QAFL[PyrS2(4)][3Thi][Bta]F-NH2", "modifications": "staple 1-4, 4-11; not fully specified; printed as Ac-PL3-Asp-Npg-B5-Asp-3COOHF-Gln-Ala-Phe-Leu-PyrS2-3Thi-BztA-Phe-NH2; reading uncertain"}, "B8": {"name": "I-2316 (peptide)", "peptide": "Ac-[αAllylPro]D[tBuAla][B5(4)]D[Phe(3-COOH)][(TfePpz)GlnR]AFL[PyrS2(4)][2F3MeF][Bta]A-NH2", "modifications": "staple 1-4, 4-11; reading uncertain; also: printed as Ac-PL3-Asp-Npg-B5-Asp-3COOHF-[TfePpz]GlnR-Ala-Phe-Leu-PyrS2-2F3MeF-BztA-Ala-NH2"}}, "note": "Starred links: 1 amine or outer side, 2 acyl side, 3 side chain; linkers in the order of their positions; H or OH if unused. Positions of bridges follow the written chain, without caps; N, C: chain ends. Non-standard residues stand in square brackets, D forms with d. Primed or numbered codes have the meaning given here. *: point of attachment. PyrS2″ = (S)-3-amino-1-((pent-4-en-1-yloxy)carbonyl)pyrrolidine-3-carboxylic acid (stapling residue), C=CCCCOC(=O)N1CC[C@@](N[*:1])(C(=O)[*:2])C1; B5(4) = 2,2-bis(4-pentenyl)glycine = 2-amino-2-(pent-4-en-1-yl)hept-6-enoic acid (stitching residue), C=CCCCC(CCCC=C)(N[*:1])C(=O)[*:2]; B5(5) = 2,2-bis(4-pentenyl)glycine, 2-amino-2-(pent-4-en-1-yl)hept-6-enoic acid (stitching residue), C=CCCCC(CCCC=C)(N[*:1])C(=O)[*:2]; PyrS2 = (S)-3-amino-1-((pent-4-en-1-yloxy)carbonyl)pyrrolidine-3-carboxylic acid, C=CCCCOC(=O)N1CC[C@@](N[*:1])(C(=O)[*:2])C1; (2OxoPpz)GlnR = Glu side chain amide with 2-oxopiperazine (3-oxopiperazin-1-yl), O=C1CN(C(=O)CC[C@H](N[*:1])C(=O)[*:2])CCN1; (EtSO2Ppz)GlnR = Glu side chain amide with 4-(ethylsulfonyl)piperazine, CCS(=O)(=O)N1CCN(C(=O)CC[C@H](N[*:1])C(=O)[*:2])CC1; B5(12) = 2-amino-2-(pent-4-en-1-yl)hept-6-enoic acid (two olefin side chains), C=CCCCC(CCCC=C)(N[*:1])C(=O)[*:2]; B5(28) = 2,2-bis(4-pentenyl)glycine, C=CCCCC(CCCC=C)(N[*:1])C(=O)[*:2]; Phe(3-COOH) = N[C@@H](Cc1cccc(C(=O)O)c1)C(=O)O; 2F3MeF = Cc1cccc(C[C@H](N[*:1])C(=O)[*:2])c1F; Phe(2-Cl) = N[C@@H](Cc1ccccc1Cl)C(=O)O; Bta = N[C@@H](Cc1csc2ccccc12)C(=O)O; Lys(iPr) = CC(C)NCCCC[C@H](N)C(=O)O; αAllylPro = C=CC[C@@]1(C(=O)O)CCCN1; isoindolineGlnR = not defined here; tBuAla = CC(C)(C)C[C@H](N)C(=O)O; 3Thi = N[C@@H](Cc1ccsc1)C(=O)O; Thr(ol) = C[C@@H](O)[C@H](N)CO; PyrS2(4) = not defined here; Prolinol = OC[C@@H]1CCCN1*", "data": [{"biological_target": "T1, B-cat-Halo (beta-catenin HaloTag NanoBRET construct expressed in HEK293 cells) (UniProt P35222 1-781)", "T1 sequence (looked up)": "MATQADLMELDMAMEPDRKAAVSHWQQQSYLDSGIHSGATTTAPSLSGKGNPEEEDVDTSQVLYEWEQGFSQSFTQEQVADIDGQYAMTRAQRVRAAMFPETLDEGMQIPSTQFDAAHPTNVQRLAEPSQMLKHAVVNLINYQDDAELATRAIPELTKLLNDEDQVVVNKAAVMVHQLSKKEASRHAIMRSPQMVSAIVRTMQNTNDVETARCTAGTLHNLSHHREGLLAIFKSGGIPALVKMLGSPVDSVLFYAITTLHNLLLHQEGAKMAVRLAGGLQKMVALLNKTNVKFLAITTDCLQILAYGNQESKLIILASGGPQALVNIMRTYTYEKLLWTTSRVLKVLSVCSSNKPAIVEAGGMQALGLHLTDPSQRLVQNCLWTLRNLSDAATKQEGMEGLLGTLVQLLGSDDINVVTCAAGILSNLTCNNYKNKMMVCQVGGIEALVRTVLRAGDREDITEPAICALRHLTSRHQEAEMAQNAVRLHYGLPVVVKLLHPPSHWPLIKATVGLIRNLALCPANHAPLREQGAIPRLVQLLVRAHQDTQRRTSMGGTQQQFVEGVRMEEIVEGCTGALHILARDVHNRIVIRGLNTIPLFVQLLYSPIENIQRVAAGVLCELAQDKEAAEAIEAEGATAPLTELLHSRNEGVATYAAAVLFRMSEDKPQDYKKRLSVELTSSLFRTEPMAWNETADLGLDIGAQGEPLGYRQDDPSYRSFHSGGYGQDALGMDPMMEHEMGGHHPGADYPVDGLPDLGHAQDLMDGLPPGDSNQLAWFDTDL", "assay": "cell-based or functional assay", "units": {"NanoBRET Abs IC50": "µM"}, "values": [{"binder": "B1", "NanoBRET Abs IC50": 4.2}, {"binder": "B2", "NanoBRET Abs IC50": 9.7}, {"binder": "B3", "NanoBRET Abs IC50": 15.5}, {"binder": "B4", "NanoBRET Abs IC50": "> 20"}, {"binder": "B5", "NanoBRET Abs IC50": 13.8}, {"binder": "B6", "NanoBRET Abs IC50": "> 20"}, {"binder": "B7", "NanoBRET Abs IC50": 11.5}]}, {"biological_target": "T2, Bcat-Halo (UniProt P35222 1-781)", "T2 sequence (looked up)": "T1 sequence (looked up)", "assay": "cell-based or functional assay", "units": {"NanoBRET Abs IC50": "µM"}, "values": [{"binder": "B8", "NanoBRET Abs IC50": 1.6}, {"binder": "Ac-[αAllylPro]D[tBuAla][B5(4)]D[Phe(3-COOH)][(4Pippip)GlnR]AFL[PyrS2″][2F3MeF][Bta]A-NH2 (staple 1-4, 4-11)", "note": "[I-2317]", "NanoBRET Abs IC50": 18.8}, {"binder": "Ac-[αAllylPro]D[tBuAla][B5(4)]D[Phe(3-COOH)][(2OxoPpz)GlnR]AFL[PyrS2″][2F3MeF][Bta]A-NH2 (staple 1-4, 4-11)", "note": "[I-2318]", "NanoBRET Abs IC50": 1.8}, {"binder": "Ac-[αAllylPro]D[tBuAla][B5(28)]D[Phe(3-COOH)][isoindolineGlnR]AFL[PyrS2][2F3MeF][Bta]A-NH2 (staple 1-4, 4-11; reading uncertain)", "note": "[I-2320]", "NanoBRET Abs IC50": 2.7}, {"binder": "Ac-[αAllylPro]D[tBuAla][B5(4)]D[Phe(3-COOH)][(EtSO2Ppz)GlnR]AFL[PyrS2″][2F3MeF][Bta]A-NH2 (staple 1-4, 4-11)", "note": "[I-2321]", "NanoBRET Abs IC50": 1.7}]}]}
